For one assay, the system named is CHO cells. Put plainly: Real-time confocal imaging of ATP-induced εPKC translocation. It is filed as cell-based. The conditions noted are these: 1 mM ATP; for time after stimulation at which translocation was apparent: GFP fusion. Here is the method:
CHO cells were grown on glass coverslips, and serum-starved as described in Example 4. For each experiment, cells were transferred to a commercially available metal coverslip holder (Molecular Probes) in which the coverslip formed the bottom of a 1 ml bath. The media was then replaced with extracellular buffer (120 mM NaCl, 5 mM KCl, 1.5 mM CaCl2, 1.5 mM MgCl2, 20 mM HEPES and 30 mM glucose). Cells were stimulated by either PMA (100 nM), or with ATP (1 mM) in extracellular buffer. Fluorescence images of GFP-tagged constructs were obtained using the 488 nm excitation line of a laser scanning confocal microscope (Pascal, Zeiss) and emission was collected through a 505-550 nm band pass filter. Cells were imaged on the stage of an inverted microscope (Axiovert 100M) using a 40× Zeiss Plan-apo oil immersion objective with 1.2 numerical aperture (NA). For dual color imaging of CFP and YFP fusion proteins, a spinning disk Nipkow confocal microscope was used. Cells were viewed using an inverted Olympus IX70 microscope with a 40× oil immersion Olympus objective (1.35NA) and images were acquired with a CCD camera (Hamamatsu) and 2×2 pixel binning. CFP was excited with the 442 nm laser line of a helium-cadmium laser (Kimmon) whereas YFP was imaged with the 514 nm line of an argon ion laser (Melles-Griot). To selectively photobleach YFP labeled proteins in local regions of the cytoplasm for FRAP experiments, the 514 nm line of an Enterprise laser (Coherent) at maximal power (˜400 mW) was used. For these experiments, a 60× oil immersion objective was used (1.4NA). Under these conditions, and by placing an iris in the beam path, it was possible to bleach 80% of the YFP fluorescence in 500 ms in an area of the cytosol measuring approximately 35 um2. Real time confocal images were acquired every 10-15 seconds for 20 minutes for experiments utilizing PMA, and every 5 seconds for a total duration of 3 minutes in the case of cells stimulated with ATP. Reagents were added to the cell chamber after the fifth image in each time series. […] All images were acquired at room temperature. Images were exported as 12 or 16 bit files and changes in fluorescence intensity were measured using MetaMorph® data analysis software (Universal Imaging Corp.). To monitor the translocation of PKC, a small region of interest was selected in the cytosol of each cell and fluorescence intensity values graphed against time after subtraction of background values and normalized so that the initial fluorescence was 100%. Averages of 10-15 cells from three independent experiments were used. To determine statistical significance, a 1 tail type 2 T-test (Microsoft excel) was used.
It was next determined whether differences in translocation rates of the different εPKCs were also observed when translocation was stimulated via receptor signaling rather than by PMA. ATP has been previously used to activate PKC in CHO cells by stimulating purinergic G protein-coupled receptors [Maasch, C. et al., FASEB J. 14:1653-1663 (2000)]. All methods for this Example were performed as described, for example, in Examples 4, 6 and 7.

A short description of assay [1]: Fluorescence recovery after photobleaching (FRAP) of cytoplasmic εPKCs. It counts as cell-based. The conditions noted are these: average of at least 10 cells. Here is the method:
CHO cells were grown on glass coverslips, and serum-starved as described in Example 4. For each experiment, cells were transferred to a commercially available metal coverslip holder (Molecular Probes) in which the coverslip formed the bottom of a 1 ml bath. The media was then replaced with extracellular buffer (120 mM NaCl, 5 mM KCl, 1.5 mM CaCl2, 1.5 mM MgCl2, 20 mM HEPES and 30 mM glucose). Cells were stimulated by either PMA (100 nM), or with ATP (1 mM) in extracellular buffer. Fluorescence images of GFP-tagged constructs were obtained using the 488 nm excitation line of a laser scanning confocal microscope (Pascal, Zeiss) and emission was collected through a 505-550 nm band pass filter. Cells were imaged on the stage of an inverted microscope (Axiovert 100M) using a 40× Zeiss Plan-apo oil immersion objective with 1.2 numerical aperture (NA). For dual color imaging of CFP and YFP fusion proteins, a spinning disk Nipkow confocal microscope was used. Cells were viewed using an inverted Olympus IX70 microscope with a 40× oil immersion Olympus objective (1.35NA) and images were acquired with a CCD camera (Hamamatsu) and 2×2 pixel binning. […] Under these conditions, and by placing an iris in the beam path, it was possible to bleach 80% of the YFP fluorescence in 500 ms in an area of the cytosol measuring approximately 35 um2. […] Images were exported as 12 or 16 bit files and changes in fluorescence intensity were measured using MetaMorph® data analysis software (Universal Imaging Corp.). To monitor the translocation of PKC, a small region of interest was selected in the cytosol of each cell and fluorescence intensity values graphed against time after subtraction of background values and normalized so that the initial fluorescence was 100%. […]
Different translocation rates may reflect differences in overall mobility (diffusion) of the εPKCs in cells. Therefore, fluorescence recovery after photobleaching (FRAP) of the cytoplasmic enzyme was measured; mobility of εPKCs was measured by monitoring the time required for the fluorescence to recover in a bleached region. […]

Substitutions are numbered along the chain they refer to.

B1: D(86)A: εPKC mutant wherein D at position 86 of ΨεRACK on εPKC is substituted with an A (protein)
chain: MVVFNGLLKIKICEAVSLKPTAWSLRHAVGPRPATFLLDPYIALNVDDSRIGQTATKQKTNSPAWHDEFVTDVCNGRKIELAVFHAAPIGYDDFVANCTIQFEELLQNGSRHFEDWIDLEPEGRVYVIIDLSGSSGEAPKDNEERVFRERMRPRKRQGAVRRRVHQVNGHKFMATYLRQPTYCSHCRDFIWGVIGKQGYQCQVCTCVVHKRCHELIITKCAGLKKQETPDQVGSQRFSVNMPHKFGIHNYKVPTFCDHCGSLLWGLLRQGLQCKVCKMNVHRRCETNVAPNCGVDARGIAKVLADLGVTPDKITNSGQRRKKLIAGAESPQPASGGSPSEEDRSKSAPTSPCDQEIKELENNIRKALSFDNRGEEHRAASSPDGQLMSPGENGEVRQGQAKRLGLDEFNFIKVLGKGSFGKVMLAELKGKDEVYAVKVLKKDVILQDDDVDCTMTEKRILALARKHPYLTQLYCCFQTKDRLFFVMEYVNGGDLMFQIQRSRKFDEPRSRFYAAEVTSALMFLHQHGVIYRDLKLDNILLDAEGHCKLADFGMCKEGILNGVTTTTFCGTPDYIAPEILQELEYGPSVDWWALGVLMYEMMAGQPPFEADNEDDLFESILHDDVLYPVWLSKEAVSILKAFMTKNPHKRLGCVASQNGEDAIKQHPFFKEIDWVLLEQKKIKPPFKPRIKTKRDVNNFDQDFTREEPVLTLVDEAIVKQINQEEFKGFSYFGEDLMP
With B1, the “time after stimulation at which translocation was apparent” value (from here on “time after stimulation”) in the assay on CHO cells turned out to be 10 s. Further, the “time to fifty percent FRAP” value in assay [1] is 9.2 ± 1.1 s.

B2: D(86)N: εPKC mutant wherein D at position 86 of ΨεRACK in εPKC is substituted with an N (protein)
chain: B1 chain with A86N
Regarding B2, in the assay on CHO cells, the “steady state level compared with D(86)A or Wt” value is given as “significantly higher levels”, the “translocation rate in comparison to wild type” value is on record as “slower translocation rate” and the “time after stimulation” value was found to be 40 s. In assay [1], the “time to fifty percent FRAP” value amounted to 9.1 ± 1.6 s.

B3: Wt: wild type εPKC, human construct (protein)
chain: B1 chain with A86D
As for B3, the “time after stimulation” value in the assay on CHO cells is 10 s. In addition, the “time to fifty percent FRAP” value in assay [1] is 9.0 ± 1.2 s.

Values taken from patent publication US7994133B2, “Isozyme-specific antagonists of protein kinase C” (The Board of Trustees of the Leland Stanford Junior …, priority 2003, dated 2011).
